What was measured:
[1] = system: wild-type and variant SNAP-GIPR in Gipr-/- mouse islets; assay: Glucagon secretion from Gipr-/- mouse islets transduced with GIPR adenoviruses; assay type: cell-based; settings: Gipr-/- islets, 0.5 mM glucose; each variant vs wild type
Procedure: (§1) Isolated islets used for insulin secretion assays were treated in 1.5-ml microcentrifuge tubes. Eight-ten islets were used per well with two-three technical replicates per condition. […] At the end of the treatment, supernatants containing the secreted insulin or glucagon were collected, centrifuged at 1000g for 5 min, and transferred to fresh tubes. […] The lysates were sonicated 3× for 10 s in a water bath and centrifuged at 10,000g for 10 min, and the supernatants were collected. The samples were stored at −20°C until the insulin or glucagon concentrations were determined using an Insulin Ultra-Sensitive HTRF Assay kit (62IN2PEG, Revvity) or an HTRF Glucagon Detection Kit (62CGLPEG, Revvity) respectively, according to the manufacturer’s instructions. GraphPad Prism 9.0 was used for the generation of the standard curve and sample concentration extrapolation. The total insulin or glucagon content was calculated by adding the secreted insulin to the insulin content of the lysates, and secretion was reported as the percentage release of total. The percent secretion of islets treated with agonist was normalized to that of islets treated with vehicle and reported as a fold change.

[2] = system: wild-type and variant SNAP-GIPR in wild-type mouse islets; assay: Insulin secretion from wild-type mouse islets transduced with GIPR adenoviruses; assay type: cell-based; settings: 11 mM glucose, particularly E354Q and R190Q, not significant
Procedure: as §1, with “The samples were stored at −20°C until the insulin or glucagon concentrations were determined using an Insulin Ultra-Sensitive HTRF Assay kit (62IN2PEG, Revvity) or an HTRF Glucagon Detection Kit (62CGLPEG, Revvity) respectively, according to the manufacturer’s instructions.” left out

[3] = system: wild-type and variant SNAP-GIPR in Gipr-/- mouse islets; assay: Insulin secretion from Gipr-/- mouse islets transduced with GIPR adenoviruses; assay type: cell-based; settings: Gipr-/- islets, 11 mM glucose, 100 nM GIP
Procedure: as §1

[4] = system: wild-type and variant SNAP-GIPR; assay: Surface SNAP-GIPR expression (SNAP-tag labelling) in AD293 cells; assay type: cell-based, human; settings: for AD293 Surface: Fig S3E, mean; for Surface SNAP-GIPR expression: sheet Fig 1C;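 on all read-outs here: scaled to the experimental average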
Summary of the method: (§2)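 Read-out: whole-cell fluorescence of surface-only SNAP label (Alexa Fluor 647, 500 nM, 10 min, RT), wide-field 20X, several FOVs per well. Flat-field corrected, phase-contrast masked, nontransfected-well signal subtracted; normalized to experiment mean or wild-type.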

[5] = system: wild-type and variant SNAP-GIPR; assay: Single-concentration GIP cAMP response by HTRF in INS-1 cells; assay type: cell-based, human; settings: Fig S3E, mean
Procedure: All variants were tested in parallel on each occasion to control for transfection efficiency differences between experiments.

[6] = system: wild-type and variant SNAP-GIPR; assay: Surface SNAP-GIPR expression (SNAP-tag labelling) in INS-1 cells; assay type: cell-based, human; settings: Fig 4G; Mean
Summary of the method: as §2

CC[C@H](C)[C@H](NC(=O)[C@H](CO)NC(=O)[C@H](Cc1ccc(O)cc1)NC(=O)[C@H](CC(=O)O)NC(=O)[C@H](CO)NC(=O)[C@@H](NC(=O)[C@H](Cc1ccccc1)NC(=O)[C@@H](NC(=O)CNC(=O)[C@H](CCC(=O)O)NC(=O)[C@H](C)NC(=O)[C@@H](N)Cc1ccc(O)cc1)[C@@H](C)O)[C@@H](C)CC)C(=O)N[C@@H](C)C(=O)N[C@@H](CCSC)C(=O)N[C@@H](CC(=O)O)C(=O)N[C@@H](CCCCN)C(=O)N[C@H](C(=O)N[C@@H](Cc1c[nH]cn1)C(=O)N[C@@H](CCC(N)=O)C(=O)N[C@@H](CCC(N)=O)C(=O)N[C@@H](CC(=O)O)C(=O)N[C@@H](Cc1ccccc1)C(=O)N[C@H](C(=O)N[C@@H](CC(N)=O)C(=O)N[C@@H](Cc1c[nH]c2ccccc12)C(=O)N[C@@H](CC(C)C)C(=O)N[C@@H](CC(C)C)C(=O)N[C@@H](C)C(=O)N[C@@H](CCC(N)=O)C(=O)N[C@@H](CCCCN)C(=O)NCC(=O)N[C@@H](CCCCN)C(=O)N[C@@H](CCCCN)C(=O)N[C@@H](CC(N)=O)C(=O)N[C@@H](CC(=O)O)C(=O)N[C@@H](Cc1c[nH]c2ccccc12)C(=O)N[C@@H](CCCCN)C(=O)N[C@@H](Cc1c[nH]cn1)C(=O)N[C@@H](CC(N)=O)C(=O)N[C@H](C(=O)N[C@H](C(=O)N[C@@H](CCC(N)=O)C(=O)O)[C@@H](C)O)[C@@H](C)CC)C(C)C)[C@@H](C)CC [GIP, glucose-dependent insulinotropic polypeptide, reference compound]
glucagon release [1]: apparent but nonstatistically significant reduction in glucagon release
GIP-induced insulin secretion [2]: tendency toward reduced responses to GIP stimulation
GIP-induced insulin secretion ([3]; 30 min, E354Q vs wild-type): blunted insulinotropic response
GIP-induced insulin secretion ([3]; R101H and E288G, not significant): apparent reduced GIP-induced insulin secretion
GIP-induced insulin secretion ([3]; R190Q, statistically significant): reduced GIP-induced insulin secretion

B1: WT (protein, UniProt P48546 22-466, looked up)
Gastric inhibitory …: RAETGSKGQTAGELYQRWERYRRECQETLAAAEPPSGLACNGSFDMYVCWDYAAPNATARASCPWYLPWHHHVAAGFVLRQCGSDGQWGLWRDHTQCENPEKNEAFLDQRLILERLQVMYTVGYSLSLATLLLALLILSLFRRLHCTRNYIHINLFTSFMLRAAAILSRDRLLPRPGPYLGDQALALWNQALAACRTAQIVTQYCVGANYTWLLVEGVYLHSLLVLVGGSEEGHFRYYLLLGWGAPALFVIPWVIVRYLYENTQCWERNEVKAIWWIIRTPILMTILINFLIFIRILGILLSKLRTRQMRCRDYRLRLARSTLTLVPLLGVHEVVFAPVTEEQARGALRFAKLGFEIFLSSFQGFLVSVLYCFINKEVQSEIRRGWHHCRLRRSLGEEQRQLPERAFRALPSGSGPGEVPTSRGLSSGTLPGPGNEASRELESYC
AD293 Surface ([4]; column repeated, paired with cAMP 100 nM): 1.574
AD293 Surface ([4]; paired with cAMP 100 pM): 1.574
Surface SNAP-GIPR expression ([4]; replicate 1): 1.413
Surface SNAP-GIPR expression ([4]; replicate 2): 1.272
Surface SNAP-GIPR expression ([4]; replicate 3): 1.88
Surface SNAP-GIPR expression ([4]; replicate 4): 1.444
Surface SNAP-GIPR expression ([4]; replicate 5): 1.509
Surface SNAP-GIPR expression ([4]; replicate 6): 1.344
Surface SNAP-GIPR expression ([4]; replicate 7): 1.891
Surface SNAP-GIPR expression ([4]; replicate 8): 1.028
Surface SNAP-GIPR expression ([4]; replicate 9): 1.591
Surface SNAP-GIPR expression ([4]; replicate 10): 1.397
Surface SNAP-GIPR expression ([4]; replicate 11): 1.544
Surface SNAP-GIPR expression ([4]; replicate 12): 1.527
Surface SNAP-GIPR expression ([4]; replicate 13): 1.575
Surface SNAP-GIPR expression ([4]; replicate 14): 1.588
Surface SNAP-GIPR expression ([4]; replicate 15): 1.562
Surface SNAP-GIPR expression ([4]; replicate 16): 1.285
Surface SNAP-GIPR expression ([4]; replicate 17): 1.371
Surface SNAP-GIPR expression ([4]; replicate 18): 1.43
Surface SNAP-GIPR expression ([4]; replicate 19): 1.701
Surface SNAP-GIPR expression ([4]; replicate 20): 1.486
Surface SNAP-GIPR expression ([4]; replicate 21): 1.598
Surface SNAP-GIPR expression ([4]; replicate 22): 1.477
Surface SNAP-GIPR expression ([4]; replicate 23): 1.449
Surface SNAP-GIPR expression ([4]; replicate 24): 1.623
Surface SNAP-GIPR expression ([4]; replicate 25): 1.241
Surface SNAP-GIPR expression ([4]; replicate 26): 1.004
Surface SNAP-GIPR expression ([4]; replicate 27): 2.237
Surface SNAP-GIPR expression ([4]; replicate 28): 2.105
Surface SNAP-GIPR expression ([4]; replicate 29): 1.748
Surface SNAP-GIPR expression ([4]; replicate 30): 1.831
Surface SNAP-GIPR expression ([4]; replicate 31): 1.807
Surface SNAP-GIPR expression ([4]; replicate 32): 1.314
Surface SNAP-GIPR expression ([4]; replicate 33): 1.406
Surface SNAP-GIPR expression ([4]; replicate 34): 1.597
Surface SNAP-GIPR expression ([4]; replicate 35): 1.369
Surface SNAP-GIPR expression ([4]; replicate 36): 1.658
Surface SNAP-GIPR expression ([4]; replicate 37): 2.437
Surface SNAP-GIPR expression ([4]; replicate 38): 2.543
Surface SNAP-GIPR expression ([4]; replicate 39): 1.55
Surface SNAP-GIPR expression ([4]; replicate 40): 1.34
Surface SNAP-GIPR expression ([4]; replicate 41): 1.346
INS-1 cAMP (100 nM) [5]: 1.606
Surface expression [6]: 1.4278

Source: publication PMC13544220, “Glycemic and bodyweight effects of GIPR coding variation reflect differences in surface expression and intrinsic functional impairment” (Science Advances, 2026)
